± gives the standard deviation.
Experiment: protein stability index of a GFP-peptide fusion (GPS, HEK-293T) (PSI 1-6); higher = more stable
Conditions: c terminus: a fixed tail appended
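Also: 24-mer peptide tiles fused after GFP, lentivirally expressed, FACS-sorted into six equal bins by GFP/DsRed ratio, decoded by Illumina sequencing, PSI is the read-weighted mean bin number.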

Sequence | protein stability index (treatment: DMSO) | protein stability index (treatment: MLN4924 1 uM, 8 h)
CAMEDHNCEQLCVNVPGSFVCQCY [MATN2] | 2.5 ± 0.35 | 2.48 ± 0.39
AISITAIAKYSDGASKAAGVFGFF [CMTM3] | 2.96 ± 0.88 | 2.78 ± 0.4
LQLETVLEGVVSQIDAVGSKLKML [PKD2L1] | 2.37 ± 0.42 | 2.37 ± 0.11
SKSKEEVSSLISEKTNGATPLLMA [FEM1C] | 4.26 ± 0.42 | 4.49 ± 0.24
PYQALRLWARGTWTQATGLGCALL [SOAT2] | 2.09 ± 0.46 | 2.05 ± 0.3
EWVLSTGQDKQFAWHCSESGQRLG [WDFY2] | 3.21 ± 0.23 | 3.05 ± 0.2
WEALNMMGLYDGMEHLIYGEPRKL [MAGEA10] | 2.22 ± 0.59 | 2.45 ± 0.34
MFVFQDGRWVNENCRLQSPYFSPS [CBY2] | 2.36 ± 0.37 | 2.05 ± 0.42
NMQQPMNVMTQSFGAVNLSSPSNM [CLINT1] | 3.44 ± 0.17 | 3.66 ± 0.17
PLLMNRQRVPKVLVENAKNFPQCV [EFHC1] | 2.46 ± 0.44 | 2.47 ± 0.072
NTVLRFLDLKGNNLRAAGAEALGK [LRRC45] | 3.31 ± 0.27 | 3.28 ± 0.25
SQEAADTPDTRHPCSLGSSLVADY [YJU2B] | 4.34 ± 0.35 | 4.59 ± 0.21
MHYQMSVTLKYEIKKLIYVHLVIW [JAGN1] | 3.1 ± 0.32 | 3.15 ± 0.8
VAAAASRGADDAMESSKPGPVQVV [ATL3] | 5.03 ± 0.26 | 4.9 ± 0.25
LKRPVNVPFDIFTEEVKFYQLGEE [KCNA4] | 3.01 ± 0.27 | 3.27 ± 0.37
KSIDDTSNFDDFPESDILQPVPNT [STK38L] | 5.25 ± 0.24 | 5.27 ± 0.077
FRDATSAPLRKLSVDLIKTYKHIN [DYRK1B] | 3.36 ± 0.17 | 3.39 ± 0.27

Sequence | protein stability index (treatment: DMSO) | protein stability index (treatment: MLN4924 1 uM, 8 h)
WIAHSEKLPRKVLQHVSEPQAHQE [SPACA9] | 4.11 ± 0.35 | 4.05 ± 0.34
SASHYKLQVIKALKSSGLCESLTY [M1AP] | 2.03 ± 0.41 | 2.25 ± 0.59
RSVEEAPVYSVPQLLSAMGSLCSL [SCNN1D] | 2.44 ± 0.16 | 2.59 ± 0.4
RCLVRCLLRREPAERLTATGILLH [TRIB3] | 2.38 ± 0.43 | 2.44 ± 0.26
RGPGASGEQPEPGEAAAGGAAEEA [ACBD3] | 5.54 ± 0.23 | 5.62 ± 0.15
AALPPVPSPPAAPSVADNLLASSD [SERTAD1] | 5.46 ± 0.14 | 5.35 ± 0.3
LSRYLIEPCGPGKSKLTYMCRVDL [DLC1] | 2.99 ± 0.73 | 3.2 ± 1.3
QEELNRKAEELDRRERELQHAALG [SCAMP3] | 5.39 ± 0.21 | 5.24 ± 0.55
AQALRQELERQRRLLGSVQQDLER [PBXIP1] | 4.08 ± 0.091 | 4.23 ± 0.12
SYSPASASSGGAGAAVGTGSSYPT [JUNB] | 4.41 ± 0.27 | 4.61 ± 0.094
KNSDGMEAAGVQIQMVNESLGYVR [CD207] | 3.83 ± 0.28 | 4.08 ± 0.13
QPHLPLLSTLAGIRVMVHGRNHTP [SCNN1D] | 2.52 ± 0.24 | 2.62 ± 0.26
GILEHVDSASPVEDTSNDESSILG [M1AP] | 5.56 ± 0.26 | 5.48 ± 0.4
RGLLEYFKAYIKIYQGEDLPHPKS [ATL3] | 3.18 ± 0.84 | 2.56 ± 0.88
NLLGEGQHKCDECGKSFTQSSGLI [ZSCAN9] | 3.66 ± 0.3 | 3.68 ± 0.28
ESEFDIEDEDKSEPEQTGADAAED [RBBP5] | 5.73 ± 0.18 | 5.826 ± 0.029

From the supplement of paper PMC10567573
